Key:
[1] = target: human brain natriuretic peptide (hBNP) (human); assay: Scatchard plot from the hBNP standard curve of the radioimmunoassay
[2] = target: monoclonal antibody BC203; assay: competitive radioimmunoassay: unlabeled hBNP against 125I-labeled Tyr0-hBNP on BC203 (ascites BC203A diluted 42,000-fold), PEG precipitation

human brain natriuretic peptide (hBNP), sequence (peptide): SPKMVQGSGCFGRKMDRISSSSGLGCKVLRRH
human brain natriuretic peptide (hBNP) (human), sequence (peptide, as listed by the source): as the sequence (peptide) above

Substance | Ka [1] [M⁻¹] | 90% inhibitory concentration [2] [ng/mL] | IC50 [2] [µg/mL]
monoclonal antibody BC203 | 1.3e+09 | – | –
human brain natriuretic peptide (hBNP) | – | 1.3 | 0.0118

Source: patent publication US6677124
